Source: patent publication US20260241035A1, “FUNCTIONAL NUCLEIC ACID MOLECULE AND METHOD” (THE UNIVERSITY COURT OF THE UNIVERSITY OF EDINBURGH, priority 2022, published 2026)

B1: ID0403-1: enhancer fragment, SEQ ID NO: 32 (nucleic acid)
DNA: TGCCTCTCTTCCATTGGCATTGGAGTGGCTATAGGCCTTTGGAGGACCTGGCAAAGGGGAAGTTGATTTAGGGGTTCATTGAATTGAGGGGAAGTATGTAAGTGGTTTGCAGTCACTTCCTTGTGTGGTACTCTTGTATAGTAATGATTTCCTGGAATA
B2: CSE194: clustered SOX dimer motif enhancer, SEQ ID NO: 37 (nucleic acid)
DNA: ATCTCATATATGTGTATATGTATTTATGATTTACATATATACAGACGTATCACACACTCCGAATAGAATACAGATTTCCTTCAATGACAGCAACAACTCAATGACCCGCCCACTAGCATGGCTAAAATACTAAACCACTAGATAGCTTTATGTGAACTTGAGCTTGATTGTTTCTTAGCTCTGCTTCAGAACCTCATGATCATGTGCATGCAATTTCTACAGAAGCGGAAACGTAGATGCTGTGGGTCAGTGAGCATTCCTTTCCAGGGTGCTTCTGAGATGAAGCCCCACGATTAACACAGGGCCCTTAATGATGGGCGGGGGACTAAGCATTCCAAGATTGGCCTGGATTCCTGCCAGAAGGGAGAGAAAGGGGTCTTTGTATGTGGACATCTGAAGGGCGGGCATAAACATGTTAGTTGATACTTAACACCCAAAACCAGTGCCAAAACCGTTAGCTCCCCTCAATAGCCTACTCTGGTTTCAACTGTCCGCGACAATGGAGCAGCCACCTCAATATACAAAACTTGCTCTTTAAACATCCTCAGAGGAATTCCCAAAATAGCAGCTGTTAGAAGCAAACAGACTCTAATTCATTGACATATGCAGACCTTTTAATGTTTTTCTGGTGACGTTTACATTTTTTTTTGTACCTACGCCATCTATGCATTTTTAATAATTACCTTGTAGATTACGTATGCAATCCCTCCAGGCACTTGAAGAAGGAGCCCCGGGATTCATCATCAGATGAAATTGTTAGTTTTTACGGCAAGAGGCCCAGCTAATTTATGCGGGGAATTTTTCAGACGTTTTTCCTCTGGGCTCCCTTCCCTGCTGTCCTCGCGCCTTTCTTCCTCAGTACATTAAGAGATTCTGATGTGCCTGCAGCA
B3: CSE208: clustered SOX dimer motif enhancer, SEQ ID NO: 38 (nucleic acid)
DNA: AGATAAAGCCAGAAATAAAAGGGAAAGAAACAGTTATATGATTTTGGTGGGAATTTGCAGAAATACAGGCTGAAGCTGAAGTCTTCCATCAGGTGAGGTTTTTTCCATTGATCTCATCTCTCGGGCTCAGCTCTTTTATCTCCAGCGCATTTTGGATGTGGCTTCTCTTTCCACCTGCTGGGCCTTTAGATAGAGTACTTCCTTTTGTTTCAAGGTAGCATTTAACTGAGTCTGGAAAAACCATCATTAAGGGAAAATAAAGCTGAAAGATGAATTGAAAACTATGTAAAAGGGCCCTTTCAGGCTGCCGGAGAGATTGCCTTTCCAGCCTAATGAGCCTGTGCTGCCTCTGATTCAGATGGTGCAAGGACAGGAGAAAAGAATGGAGTTTTGTGCACTGCGATTTTCCAAAGCACATAATGCTTAGTCATTTGGGGTGTTAGGAAAGAGAGAAAGTCGGAGCGGAGTGTGTGGTGAAGTGAGAGAAAGAAAGAAGGCTGAATTTTCGTTAAGCTGCTCAAATGCCTGCTTTAACAAAAGTCTGCCAGGGCTAGAGGTGATTAGCCATCAGTGCTGCTGCTGTTTTTGCTGTCG
B4: ID4035: enhancer fragment, SEQ ID NO: 29 (nucleic acid)
DNA: CCCAGACTGCCATCTCCACGGCCCCCACACCAGCACACAGATGCCTCATTCACGTGGTGCTCCCAGGGCCTGGCACCAGTTCTGAGGCTTAAAATAGGCACACAACGGGCCTTTGTCGGATAGAGGAAGGAAGGAAGGAGCGTTTCAGACAAAGGAGACA
B5: ID0403-2: enhancer fragment, SEQ ID NO: 33 (nucleic acid)
DNA: ATGTTAAACAGTGAAATCATCAGCAAAAAGCACAAAACTGCAGAAAACATGGCACTAAATAGAACACAAAAAGGACACTTGTTTACAGTATGAGAGCAGAAACAAGGAAACAGTGTTTCCTTGTTCAGCCACAGCTGGGACCTTGTGTGT
B6: ID0109: enhancer fragment, SEQ ID NO: 6 (nucleic acid)
DNA: GAAATTGGATCCTGAGGAGAATGTCACCACCTCTTTGACAATAACTAGCTTTCAGAGCTGAACACAGTGAATCTGGATACTGTGTATATGTTTAAATGAGTTAGGAAATGACATCACATTATTTATTTCTTCTTTTGTGACTTAGTAAATTGACTTGGCC
B7: ID2816: enhancer fragment, SEQ ID NO: 31 (nucleic acid)
DNA: TTCCTGCATCTGGCCCTCTTTGAGAGCCCCTTGTGTGCCAATGACAAACCCTTCTTTATTTAAGCTCCTCTGAAGTGCCTTCCTGGTCTTGGCAGCTGGACAGGGCCCTGAATAAGACAGCGAGCCTCAATGGCAGGCTACCCCAGGGCTGGGTGACGTA
B8: ID4431: enhancer fragment, SEQ ID NO: 35 (nucleic acid)
DNA: AAATGGTGATTATCATCATTTGTTCAGGGACATTAGCATGAAGGCCGAATGTTCTGGCACAAAGACACGTCTGTGGGACAGGCAC
modifications: listed as DNA, chemistry not given here
B9: CSE222: clustered SOX dimer motif enhancer, SEQ ID NO: 39 (nucleic acid)
DNA: CTCTTTGGGTCTAGGTATCATTTTGGGATCACATCATGATAACTCTATGTGTGTGTGCTGGGAGGGCAAAGTTGCAAAGCAATTACTCAGCAATGCTGAAGAAAGAAGCAATTACTGGAACACATTTTAGCCCCGCTTGTCAGAGTGACTTTCACTGGGGCACAAGGGAAGCATTCACTTAGGCAGTATCCCTTTCAGAGGCTTAATTTAGTTTTTTCTTCCCTTTAATTGTGTGATTCCAGTATTTTAGCTACAATCCCTAGGCTGTAGGAACCTTTAAACACTTCTTTTTATAAAAGAAATGCATGGGCTTTTGAAGAATAAACAGGGGGCTGCATAATTTATAGGAAAATGGCACCATGGACTTTTCCTTCACAAAGAACATTGGGGTTACATTGGAACAAGCCAAATATGTTTTTAATGAATAGTCAGTAATCAGCAGCAGCTACAGTAAGTGCTTGAAATTTTTCTTTTATGTGCTATGAGTCCACAAACTAAGCATCTGATTCTGATTGCAGCCATGA
B10: ID2082: enhancer fragment, SEQ ID NO: 28 (nucleic acid)
DNA: ACAGAAGCCGTTGCTGCAGTAACCACTGCCGCAAGAGCAACTTTGGCAGCAGGCAGGTGCCAGGCAGCAAGCTGAGAGAACACTGACAGATTCAAAGTGTCTTCAGATACAAGGCTTTGTTTGTGCACAGTGAACAAAGGGCATATTGGGAAGGCCTCC
B11: ID3499: enhancer fragment, SEQ ID NO: 36 (nucleic acid)
DNA: AAGAATGAACTGGGCCCAGCTGGGCATTTGCATCAAAGTGCCTCACCAGAGTTCCCAGCTGCTCTGGCAGAGTGCCCAGGCTTGCCCCAGAGCCCAAACAGAATGCTCTTTGAGATGCCTCTGGTTTTCA
modifications: listed as DNA, chemistry not given here
B12: ID1667: enhancer fragment, SEQ ID NO: 30 (nucleic acid)
DNA: ACCCTTTGCAGAGAGGAAAGAGAAAGGAGGTCTCCTGTTGGGGAGATCTGCTTTAGAGGTTAGGAAGAATGGTGGAGTTGTAAGACATTGGAATCACTGTCTAGGAAGGACAGTGGCCTTTTATCCAGGGCTATTTAAAAACAGACAGAGCTTCATCTAT

These molecules were tested on GSC7 cells (assay: Nano-Glo Dual-Luciferase Reporter (Nanoglo DLR) assay of enhancer activity, fold change to mCMV). Conditions: expression fold change of the individual enhancer compared to mCMV.
Type: cell-based, human
From the text: We chose an arrayed library format, with 160 bp enhancer fragments individually cloned into separate plasmids and arrayed in 96 well plates. These 160 bp were synthesized as a single pool of oligos, then randomly cloned into the plasmid and isolated. 20 bp×2 were needed for PCR amplification of the pool and so a library of 200 bp fragments was synthesized (Twist Biosciences). To meet our oligo synthesis strategy, ChIP-seq peaks expressed by GSCs were merged into a single oligo. This oligonucleotide pool was PCR-amplified (using limited cycles to reduce bias and ‘jackpot’ products meaning products which are easier to amplify will overtake the oligonucleotide pool) and cloned into the expression vector by an efficient Golden Gate reaction. 4579 individual plasmids were then randomly picked, isolated and plated as an arrayed plasmid DNA library on 96 well plates (×48). The bacterial colony picking and production of plasmid minipreps were supported by the Edinburgh Genome Foundry (S. Rosser). This library was then screened using the optimised Nanoglo DLR assay (Nano-Glo Dual-Luciferase Reporter Assay, Promega) in 384 well format. Each plate was transiently transfected together with PGK-FFLuc in a 1:10 ratio into GSC7 cells. 2 days later a Nanoglo DLR assay was performed and assayed on a plate reader.
Cells were seeded in 384 well plates using a multidrop and transfected the following day using the CyBio Felix. Two days later the experiment was terminated with a Nanoglo DLR assay and all hits with a fold change to mCMV greater than 10 were Sanger sequenced and mapped back to the genome.
Cells were seeded at the required density. The following day the transfection was carried out. For this the Plus reagent and Lipofectamine LTX (Life Technologies, 15338030) were each diluted in half the volume of Opti-MEM I Reduced-Serum Medium (further referred to as Optimem) (Life Technologies, 31985062). Following this step, the Plus reagent/Optimem premix was added to all DNA samples followed by the Lipofectamine LTX/Optimem premix. The transfection mix was incubated for 5 min at room temperature and then carefully dropped on the cells. Generally, no media change was carried out. Cells were analysed two days following transfection.
This assay consists of two steps. The transfection was carried out using a normalisation plasmid PGK-Firefly-Luciferase (Promega, E5011) that was transfected in a 1/10 ratio with the plasmid of interest. First, the Firefly Luciferase activity is measured which allows to normalise to transfection efficiency. In a second step, the activity of Nanoluc is determined which is the readout of the plasmid of interest. Cells were washed 3× with PBS and 20 μl was left in the 96 well plate after the final wash (25 μl in 384 well). Oneglo buffer was added and the plate was shaken for 5 min at 480 rpm to allow cell lysis. 20 μl cell lysate in 96 well format or 25 μl cell lysate in 384 well format was then transferred into the corresponding opaque white plate and luminescence was measured at for 0.1 s per well using the Ensight Multimode Plate Reader. For the following Nanoluc reaction in a 96 well format 2 μl cell lysate was transferred into an opaque white plate containing 40 μl PBS, and 20 μl Stopglo buffer, supplemented with substrate, was added to each well. In a 384 well format 20 μl Stopglo buffer containing substrate were added on top of the undiluted cell lysate. The plate was shaken again for 5 min at 480 rpm to quench the firefly luciferase reaction and ensure good mixing. Nanoluc activity was measured for 0.1 s per well, again using Ensight Multimode Plate Reader.
Data obtained by the Nanoluc reaction was normalised to Firefly reaction to account for well-to-well variability of transfection efficiency. Normalised data were used to calculate the fold change to the empty vector control mCMV.

Going from B1 to B2, the “Fold change (Median)” value falls from 24.9 fold to 14.54 fold.

Compared with B3, B4 is lower in “Fold change (Median)” value: 45.5 fold for the first, 26.2 fold for the second.

Going from B5 to B6, the “Fold change (Median)” value rises from 24.9 fold to 116.4 fold.

Compared with B7, B8 is lower in “Fold change (Median)” value: 25.1 fold for the first, 21.2 fold for the second.

Compared with B9, B10 is lower in “Fold change (Median)” value: 145.9 fold for the first, 26.4 fold for the second.

First: B11
Second: B12
The “Fold change (Median)” value of the first is lower: 20.7 fold for the first, 25.2 fold for the second.
